The results in this text go back to patent JP2005325133A (dated 2005).

cellulose membrane = not defined here

For assay [1], the target named is T1, 13-mer peptide, amino acids 65-77 of HLA-DR β chain (DRB1*15011), SEQ ID NO 84 (human, reading uncertain).
T1 construct: SPOT peptide; also called 配列番号84; 65番目〜77番目
T1 peptide: Ac-KDILEQARAAVDT-{cellulose membrane}
In words: SPOT peptide membrane, chemiluminescence (LumiImager).

Assay [2] addresses T2, 13-mer peptide, amino acids 63-75 of HLA-DR β chain (DRB1*15011), SEQ ID NO 83 (human, reading uncertain).
T2 construct: SPOT peptide; also called 配列番号83; 63番目〜75番目
T2 peptide: Ac-SQKDILEQARAAV-{cellulose membrane}
Described as above.

Assay [3] has as its target T3, 13-mer peptide, amino acids 61-73 of HLA-DR β chain (DRB1*15011), SEQ ID NO 82 (human, reading uncertain).
T3 construct: SPOT peptide on cellulose membrane (JERINI); also called 配列番号82; 61番目〜73番目
T3 peptide: Ac-WNSQKDILEQARA-{cellulose membrane}
In words: SPOT peptide membrane.

Assay [4] has as its target T4, HLA-DR DRB1*15011/DRA*0101 forcibly expressed on L cells (ATCC CCL-1) (human, UniProt P01903 26-254; P01911 30-266).
T4 construct: whole, on cells
The assay can be described thus: flow cytometry on transfected L cells. On the technique in general: In flow cytometry, cells or beads pass a laser one at a time.

Assay [5] addresses T3, 13-mer peptide, amino acids 61-73 of …. The assay can be described thus: SPOT peptide membrane, chemiluminescence (LumiImager).
The target of the next assay is T5, SEQ ID NO 27 (human).
T5 construct: One of 16 peptides covering the polymorphic variants of HLA-DR β chain 61-73; also called 配列番号27
T5 peptide: WNSQKDFLEQARA
In words: peptide spot blot, antibody 1 μg/mL, chemiluminescence (LAS2000).

The next assay has as its target T6, SEQ ID NO 26 (human).
T6 construct: One of 16 peptides covering the polymorphic variants of HLA-DR β chain 61-73; also called 配列番号26
T6 peptide: WNSQKDFLEDERA
The assay is described as above.

Another assay concerns the target T7, SEQ ID NO 47 (human).
T7 construct: also called 配列番号47
T7 peptide: WNSAKDLLEQRRA
The description is as above.

A further assay has as its target T8, SEQ ID NO 46 (human).
T8 construct: also called 配列番号46
T8 peptide: WNAQKDLLEQRRA
Described as above.

The target in a further assay is T9, SEQ ID NO 36 (human).
T9 construct: One of 16 peptides covering the polymorphic variants of HLA-DR β chain 61-73; also called 配列番号36
T9 peptide: WNSQKDLLEQKRG
The description is as above.

A further assay deals with T10, SEQ ID NO 32 (human).
T10 construct: One of 16 peptides covering the polymorphic variants of HLA-DR β chain 61-73; also called 配列番号32
T10 peptide: WNSQKDILEDKRA
The assay is described as above.

Another assay deals with T11, SEQ ID NO 33 (human).
T11 construct: One of 16 peptides covering the polymorphic variants of HLA-DR β chain 61-73; also called 配列番号33
T11 peptide: WNSQKDILEQARA
Described as above.

The next assay deals with T12, SEQ ID NO 45 (human).
T12 construct: also called 配列番号45
T12 peptide: WASQKDLLEQRRA
The description is as above.

The target of another assay is T13, SEQ ID NO 30 (human).
T13 construct: One of 16 peptides covering the polymorphic variants of HLA-DR β chain 61-73; also called 配列番号30
T13 peptide: WNSQKDILEDRRA
The description is as above.

In another assay the target is T14, SEQ ID NO 42 (human).
T14 construct: also called 配列番号42
T14 peptide: WNSQKDLLEQARA
The description is as above.

In the next assay the target is T15, SEQ ID NO 43 (human).
T15 construct: also called 配列番号43
T15 peptide: WNSQKDLLEQRRG
Described as above.

The target of another assay is T16, SEQ ID NO 28 (human).
T16 construct: One of 16 peptides covering the polymorphic variants of HLA-DR β chain 61-73; also called 配列番号28
T16 peptide: WNSQKDILEDERA
Described as above.

The target of the next assay is T17, SEQ ID NO 38 (human).
T17 construct: One of 16 peptides covering the polymorphic variants of HLA-DR β chain 61-73; also called 配列番号38
T17 peptide: WNSQKDLLERRRA
The description is as above.

In a further assay the target is T18, SEQ ID NO 39 (human).
T18 construct: One of 16 peptides covering the polymorphic variants of HLA-DR β chain 61-73; also called 配列番号39
T18 peptide: WNSQKDLLEDERA
The assay is described as above.

Another assay deals with T19, SEQ ID NO 29 (human).
T19 construct: One of 16 peptides covering the polymorphic variants of HLA-DR β chain 61-73; also called 配列番号29
T19 peptide: WNSQKDILEQKRG
Described as above.

The target in a further assay is T20, SEQ ID NO 24 (human).
T20 construct: One of 16 peptides covering the polymorphic variants of HLA-DR β chain 61-73; also called 配列番号24
T20 peptide: WNSQKDFLEDRRA
The description is as above.

The target of another assay is T21, SEQ ID NO 44 (human).
T21 construct: also called 配列番号44
T21 peptide: ANSQKDLLEQRRA
Described as above.

The next assay deals with T22, SEQ ID NO 31 (human).
T22 construct: One of 16 peptides covering the polymorphic variants of HLA-DR β chain 61-73; also called 配列番号31
T22 peptide: WNSQKDILEDRRG
Described as above.

For the next assay, the target named is T23, SEQ ID NO 41 (human).
T23 construct: also called 配列番号41
T23 peptide: WNSQKDLLEARRA
The description is as above.

The target of another assay is T24, SEQ ID NO 35 (human).
T24 construct: One of 16 peptides covering the polymorphic variants of HLA-DR β chain 61-73; also called 配列番号35
T24 peptide: WNSQKDLLEQARA
The assay is described as above.

The next assay addresses T25, SEQ ID NO 25 (human).
T25 construct: One of 16 peptides covering the polymorphic variants of HLA-DR β chain 61-73; also called 配列番号25
T25 peptide: WNSQKDFLERRRA
The assay is described as above.

Another assay addresses T26, SEQ ID NO 34 (human).
T26 construct: One of 16 peptides covering the polymorphic variants of HLA-DR β chain 61-73; also called 配列番号34
T26 peptide: WNSQKDLLEQRRA
Described as above.

The next assay concerns the target T27, SEQ ID NO 40 (human).
T27 construct: also called 配列番号40
T27 peptide: WNSQKDALEQRRA
Described as above.

The next assay concerns the target T28, SEQ ID NO 37 (human).
T28 construct: One of 16 peptides covering the polymorphic variants of HLA-DR β chain 61-73; also called 配列番号37
T28 peptide: WNSQKDLLEDRRA
The description is as above.

A further assay deals with T29, SEQ ID NO 48 (human).
T29 construct: also called 配列番号48
T29 peptide: WNSQADLLEQRRA
The assay can be described thus: peptide spot blot, chemiluminescence (LAS2000).

Another assay has as its target T30, SEQ ID NO 49 (human).
T30 construct: also called 配列番号49
T30 peptide: WNSQKALLEQRRA
The assay can be described thus: peptide spot blot, chemiluminescence (LAS2000).

The target in the next assay is T31, SEQ ID NO 51 (human).
T31 construct: also called 配列番号51
T31 peptide: WNSQKDLLEQRAA
The assay can be described thus: peptide spot blot, chemiluminescence (LAS2000).

In the next assay the target is T32, SEQ ID NO 50 (human).
T32 construct: also called 配列番号50
T32 peptide: WNSQKDLLAQRRA
The assay can be described thus: peptide spot blot, chemiluminescence (LAS2000).

B1: human anti-HLA-DR monoclonal antibody HD4 (hybridoma HD4, FERM BP-7771) (antibody, V domains shown)
VH: EVQLLESGGGLVQPGGSLRLSCAASGFTFSSYAMTWVRQAPGKGLEWVSGISGGGDSTYYADSVKGRFTISRDNSKNTLYLQMNSLRAEDTAVYYCARDHGSGSYYPYWFDYWGQGTLVTVSS
VL: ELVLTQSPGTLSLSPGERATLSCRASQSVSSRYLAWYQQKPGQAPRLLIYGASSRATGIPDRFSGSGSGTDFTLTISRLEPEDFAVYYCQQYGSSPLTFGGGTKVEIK
notes: Human IgG with kappa light chain from a KM mouse hybridoma
On to B1, for which the binding result in assay [1], in assay [2] and in [3] was “binds” each time.

B2: human anti-HLA-DR monoclonal antibody HD8 (hybridoma HD8, FERM BP-7773) (antibody, V domains shown)
VH: QVQLQHSGPGLVKPSQTLSLTCAISGDSVSSNSASWNWIRQSPSRGLEWLGRTYYRSKWYNDYAVSVKSRIVINPDTSKNQFSLQLNSVTPEDTAVYYCARENFYGSETCHKKYYCYGMDVWGQGTTVTVSS
VL: AIQLTQSPSSLSASVGDRVTITCRASQGISSALAWYQQKPGKAPKLLIYDASSLESGVPSRFSGSGSGTDFTLTISSLQPEDFATYYCQQFNSFPLTFGGGTKVEIK
notes: as for B1
Regarding B2, the binding result (in assay [4]; in assay [1]; in assay [5]; in assay [2]; with SEQ ID NO 27; with SEQ ID NO 26) was “binds” throughout. For the same molecule, the binding result in the assay with SEQ ID NO 47, with SEQ ID NO 46, with SEQ ID NO 36, in the assay with SEQ ID NO 32, with SEQ ID NO 33 and in the assay with SEQ ID NO 45 was “binds” in each case. Also, the binding result with SEQ ID NO 30, with SEQ ID NO 42, in the assay with SEQ ID NO 43, in the assay with SEQ ID NO 28, with SEQ ID NO 38 and with SEQ ID NO 39 was “binds” in each case. Also, the binding result with SEQ ID NO 29, in the assay with SEQ ID NO 24, in the assay with SEQ ID NO 44, with SEQ ID NO 31, with SEQ ID NO 41 and in the assay with SEQ ID NO 35 was “binds” in each case. In addition, the binding result was “binds” with SEQ ID NO 25; “binds” in the assay with SEQ ID NO 34; “binds” with SEQ ID NO 40; “binds” in the assay with SEQ ID NO 37; “no binding (tested: 1μg/mL)” in the assay with SEQ ID NO 48; “no binding (tested: 1μg/mL)” with SEQ ID NO 49. Besides, the binding result with SEQ ID NO 51 and in the assay with SEQ ID NO 50 was “no binding (tested: 1μg/mL)” in each case.
